Sequences and labels used below:
T1: PUF4 RNA-binding domain (Saccharomyces cerevisiae, UniProt P25339 537-888)
T1 sequence: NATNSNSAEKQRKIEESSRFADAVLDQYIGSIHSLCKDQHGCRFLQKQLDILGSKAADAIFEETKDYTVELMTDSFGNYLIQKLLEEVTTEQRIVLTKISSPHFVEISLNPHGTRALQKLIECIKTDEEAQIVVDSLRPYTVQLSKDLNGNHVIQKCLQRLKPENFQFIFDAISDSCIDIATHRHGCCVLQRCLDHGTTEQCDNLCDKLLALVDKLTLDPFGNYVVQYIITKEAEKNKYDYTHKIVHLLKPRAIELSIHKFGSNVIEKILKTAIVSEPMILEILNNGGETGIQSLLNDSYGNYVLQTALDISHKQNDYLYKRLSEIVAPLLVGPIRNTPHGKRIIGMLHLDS

B1: Id_ii_S4_P4E.4_K4.3_C4.2_[C-2G]_H4.3_A4.1_F4.1_T4.2_[G10T] (ssRNA)
RNA: UUUGACAACUGAUCGUUCUUUCUGUACACUAUUAUUUUCUUUCUCGAUCAGUUGUCUUU
B2: Id_ii_S4_P4E.4_K4.3_C4.2_[T-1C]_H4.3_A4.1_F4.1_T4.2_[G10C]_[T11C] (ssRNA)
RNA: B1 RNA with G24C, U25C, U35C, U36C
B3: Id_ii_S4_P4E.4_K4.3_C4.2_[C-2A]_H4.3_A4.1_F4.1_T4.2_[G10A] (ssRNA)
RNA: B1 RNA with G24A, U35A
B4: Id_ii_S4_P4E.4_K4.3_C4.2_[C-2T]_[T-1A]_H4.3_A4.1_F4.1_T4.2_[G10A]_[T11C] (ssRNA)
RNA: B1 RNA with G24U, U25A, U35A, U36C
B5: Id_ii_S4_P4E.4_K4.3_C4.2_[C-2A]_[T-1C]_H4.3_A4.1_F4.1_T4.2_[G10C] (ssRNA)
RNA: B1 RNA with G24A, U25C, U35C
B6: Id_ii_S4_P4E.4_K4.3_C4.2_[T-1C]_H4.3_A4.1_F4.1_T4.2_[G10A] (ssRNA)
RNA: B1 RNA with G24C, U25C, U35A
B7: Id_ii_S4_P4E.4_K4.3_C4.2_[C-2T]_[T-1C]_H4.3_A4.1_F4.1_T4.2_[G10A]_[T11C] (ssRNA)
RNA: B1 RNA with G24U, U25C, U35A, U36C
B8: Id_ii_S4_P4E.4_K4.3_C4.2_[C-2A]_H4.3_A4.1_F4.1_T4.2_[G10C]_[T11C] (ssRNA)
RNA: B1 RNA with G24A, U35C, U36C
B9: Id_ii_S4_P4E.4_K4.3_C4.2_[C-2G]_H4.3_A4.1_F4.1_T4.2_[G10A]_[T11A] (ssRNA)
RNA: B1 RNA with U35A, U36A
B10: Id_ii_S4_P4E.4_K4.3_C4.2_[C-2T]_[T-1A]_H4.3_A4.1_F4.1_T4.2_[G10T]_[T11A] (ssRNA)
RNA: B1 RNA with G24U, U25A, U36A
B11: Id_ii_S4_P4E.4_K4.3_C4.2_[C-2T]_[T-1C]_H4.3_A4.1_F4.1_T4.2_[G10T]_[T11C] (ssRNA)
RNA: B1 RNA with G24U, U25C, U36C
B12: Id_ii_S4_P4E.4_K4.3_C4.2_[T-1C]_H4.3_A4.1_F4.1_T4.2_[G10C] (ssRNA)
RNA: B1 RNA with G24C, U25C, U35C
B13: Id_ii_S4_P4E.4_K4.3_C4.2_[C-2T]_[T-1A]_H4.3_A4.1_F4.1_T4.2 (ssRNA)
RNA: B1 RNA with G24U, U25A, U35G
B14: Id_ii_S4_P4E.4_K4.3_C4.2_[T-1G]_H4.3_A4.1_F4.1_T4.2_[G10C]_[T11C] (ssRNA)
RNA: B1 RNA with G24C, U25G, U35C, U36C
B15: Id_ii_S4_P4E.4_K4.3_C4.2_[C-2G]_H4.3_A4.1_F4.1_T4.2_[G10A]_[T11C] (ssRNA)
RNA: B1 RNA with U35A, U36C
B16: Id_ii_S4_P4E.4_K4.3_C4.2_[C-2T]_[T-1A]_H4.3_A4.1_F4.1_T4.2_[G10T]_[T11C] (ssRNA)
RNA: B1 RNA with G24U, U25A, U36C
B17: Id_ii_S4_P4E.4_K4.3_C4.2_[T-1G]_H4.3_A4.1_F4.1_T4.2_[G10C]_[T11A] (ssRNA)
RNA: B1 RNA with G24C, U25G, U35C, U36A
B18: Id_ii_S4_P4E.4_K4.3_C4.2_[C-2T]_[T-1A]_H4.3_A4.1_F4.1_T4.2_[G10C]_[T11A] (ssRNA)
RNA: B1 RNA with G24U, U25A, U35C, U36A
B19: Id_ii_S4_P4E.4_K4.3_C4.2_[T-1A]_H4.3_A4.1_F4.1_T4.2_[G10C] (ssRNA)
RNA: B1 RNA with G24C, U25A, U35C
B20: Id_ii_S4_P4E.4_K4.3_C4.2_[T-1C]_H4.3_A4.1_F4.1_T4.2_[G10T]_[T11A] (ssRNA)
RNA: B1 RNA with G24C, U25C, U36A
B21: Id_ii_S4_P4E.4_K4.3_C4.2_[T-1G]_H4.3_A4.1_F4.1_T4.2_[G10T] (ssRNA)
RNA: B1 RNA with G24C, U25G

Residue numbers refer to the chain shown, from its start. Numbers in names are those of the source.

The term Kd denotes the free concentration of one partner at which half of the binding sites on the other are occupied at equilibrium, for simple one-to-one binding.

The target in the data set is T1, PUF4 RNA-binding domain. The data set is described as follows: Mg; RNA-MaP; 20 mM Na-HEPES pH 7.4, 30 mM KOAc, 0.75 mM MgCl2, 0.1% Tween-20, 5% glycerol, 0.1 mg/mL BSA, 2 mM DTT; 25 C; 0.0125-409.6 nM protein. The following applies: tags: N-His6-TEV cleaved; C-SNAP kept, Cy3B-labelled; label: tethered on chip by stalled RNA polymerase.
Turning to UCUCUUUAUAUUUUUAUCUCUU (ssRNA) [Ib_S1_P5E.1_K5.1_C5.1_H5.1_[G2A]_A5.1_[A7T]_F5.1_T5.1], the dissociation constant (Kd) was found to be 0.742 µM.
Molecule B1 showed a dissociation constant Kd of 0.000388 µM.
The result for B2 reads 1.36 µM; that for B3, 0.0282 µM; that for B4, above 2.3 µM.
The molecule B5 showed a Kd above 2.3 µM.
Regarding B6, the dissociation constant (Kd) was above 2.3 µM.
B7: binding was characterised by a dissociation constant (Kd) of 2.11 µM.
B8 yielded a Kd of 0.0149 µM.
In turn, B9 displayed a Kd of 0.000535 µM.
B10 gave a dissociation constant (Kd) of 0.716 µM.
In the case of B11, the Kd is above 2.3 µM.
As for B12, the dissociation constant Kd is above 2.3 µM.
B13 had a Kd above 2.3 µM.
Consider B14, for which the Kd was above 2.3 µM.
As to B15, binding was characterised by a dissociation constant (Kd) of 0.00154 µM.
The result for B16 reads above 2.3 µM; that for B17, above 2.3 µM.
The result for B18 reads above 2.3 µM; that for B19, above 2.3 µM; that for B20, 0.728 µM.
As to B21, the dissociation constant (Kd) was above 2.3 µM.
The result for UCUCUUUAUAUUCUUAUCUCUU (ssRNA) [Ib_S1_P5E.1_K5.1_C5.1_H5.1_[G2A]_A5.1_[A7C]_F5.1_T5.1] reads 0.801 µM.
